Reference: patent US20110263459, “DIRECT SELECTION OF STRUCTURALLY DEFINED APTAMERS” (published 2011)

How the values were obtained:
[1] = molecular target: HIV-1 nucleocapsid protein NCp7 (HIV-1) (UniProt P03349); settings: Cy3-NCp7 microarray; 3.5x background (AUA)
[2] = molecular target: T1, HIV-1 nucleocapsid protein NCp7 (HIV-1, UniProt P03349 P03349:380-434); assay: Trp37 fluorescence quenching, PBS pH 7.4, 0.1% Tween-20, 5 mM MgCl2, 25 C; 1:1; settings: tags: unlabelled for Trp titration; Cy3/Dylight-labelled for chips; made in house, >95% pure; hairpin
[3] = molecular target: T1, HIV-1 nucleocapsid protein NCp7; assay: Trp37 fluorescence quenching, PBS, 5 mM MgCl2, 25 C; negative on chip; settings: tags: unlabelled for Trp titration; Cy3/Dylight-labelled for chips; made in house, >95% pure; hairpin
[4] = molecular target: T1, HIV-1 nucleocapsid protein NCp7; assay: multiple NCp7 bound per TBA in Trp37 titration; positive on chip; settings: tags: unlabelled for Trp titration; Cy3/Dylight-labelled for chips; made in house, >95% pure; G4

TGTNNN [N6-56(64) pool]
binding signal (fold of GUG control) [1]: 1.5

GGACUAGCGGUGGCUAGUCC (ssRNA) [G control (SL3-GUG)]
Kd [2]: 10 nM

GGACUAGCGAUAGCUAGUCC (ssRNA) [A control (SL3-AUA)]
Kd [3]: 200 nM

GGTTGGTGTGGTTGG (structured_DNA) [control 33 (TBA)]
binding result [4]: binds
